Results on five molecules are retold here after article doi:10.1101/805184 (bioRxiv, 2019).

Sequences and labels used below:
T1: Swi1 (S. cerevisiae, UniProt P09547 1-1314)
T1 sequence: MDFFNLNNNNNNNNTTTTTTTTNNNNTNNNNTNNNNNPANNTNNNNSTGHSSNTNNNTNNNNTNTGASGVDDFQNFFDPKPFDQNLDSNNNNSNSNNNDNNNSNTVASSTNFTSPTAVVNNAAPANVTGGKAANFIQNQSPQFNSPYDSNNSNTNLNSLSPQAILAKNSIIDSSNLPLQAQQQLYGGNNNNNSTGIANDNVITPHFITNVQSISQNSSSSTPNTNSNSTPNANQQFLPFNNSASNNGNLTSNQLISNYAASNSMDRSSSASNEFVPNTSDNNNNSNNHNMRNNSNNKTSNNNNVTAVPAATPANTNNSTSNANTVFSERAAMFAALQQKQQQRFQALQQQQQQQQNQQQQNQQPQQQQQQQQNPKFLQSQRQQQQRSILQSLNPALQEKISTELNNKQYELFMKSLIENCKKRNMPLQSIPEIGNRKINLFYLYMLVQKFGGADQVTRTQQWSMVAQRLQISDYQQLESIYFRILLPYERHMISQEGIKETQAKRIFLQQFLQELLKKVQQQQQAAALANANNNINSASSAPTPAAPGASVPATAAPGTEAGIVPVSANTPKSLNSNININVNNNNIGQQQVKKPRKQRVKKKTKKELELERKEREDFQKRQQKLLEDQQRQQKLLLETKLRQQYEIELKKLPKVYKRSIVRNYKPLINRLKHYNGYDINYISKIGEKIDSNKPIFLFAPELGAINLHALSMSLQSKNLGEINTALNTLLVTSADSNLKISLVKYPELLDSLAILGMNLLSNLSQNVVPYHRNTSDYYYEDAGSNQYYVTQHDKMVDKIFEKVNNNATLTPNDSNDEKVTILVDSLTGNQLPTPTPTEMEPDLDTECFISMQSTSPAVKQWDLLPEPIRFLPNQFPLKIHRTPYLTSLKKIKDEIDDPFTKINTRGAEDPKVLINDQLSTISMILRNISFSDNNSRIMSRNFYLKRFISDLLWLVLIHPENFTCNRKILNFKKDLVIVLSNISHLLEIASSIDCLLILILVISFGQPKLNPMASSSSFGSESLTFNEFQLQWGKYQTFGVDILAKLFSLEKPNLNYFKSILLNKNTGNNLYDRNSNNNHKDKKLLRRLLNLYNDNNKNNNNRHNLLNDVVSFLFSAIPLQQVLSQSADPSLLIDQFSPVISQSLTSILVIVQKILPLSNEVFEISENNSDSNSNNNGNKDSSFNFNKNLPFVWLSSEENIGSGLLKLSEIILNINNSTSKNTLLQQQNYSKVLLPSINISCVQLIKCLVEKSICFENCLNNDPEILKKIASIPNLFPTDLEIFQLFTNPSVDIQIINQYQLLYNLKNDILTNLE

T2: Swi3 (S. cerevisiae, UniProt P32591 1-825)
T2 sequence: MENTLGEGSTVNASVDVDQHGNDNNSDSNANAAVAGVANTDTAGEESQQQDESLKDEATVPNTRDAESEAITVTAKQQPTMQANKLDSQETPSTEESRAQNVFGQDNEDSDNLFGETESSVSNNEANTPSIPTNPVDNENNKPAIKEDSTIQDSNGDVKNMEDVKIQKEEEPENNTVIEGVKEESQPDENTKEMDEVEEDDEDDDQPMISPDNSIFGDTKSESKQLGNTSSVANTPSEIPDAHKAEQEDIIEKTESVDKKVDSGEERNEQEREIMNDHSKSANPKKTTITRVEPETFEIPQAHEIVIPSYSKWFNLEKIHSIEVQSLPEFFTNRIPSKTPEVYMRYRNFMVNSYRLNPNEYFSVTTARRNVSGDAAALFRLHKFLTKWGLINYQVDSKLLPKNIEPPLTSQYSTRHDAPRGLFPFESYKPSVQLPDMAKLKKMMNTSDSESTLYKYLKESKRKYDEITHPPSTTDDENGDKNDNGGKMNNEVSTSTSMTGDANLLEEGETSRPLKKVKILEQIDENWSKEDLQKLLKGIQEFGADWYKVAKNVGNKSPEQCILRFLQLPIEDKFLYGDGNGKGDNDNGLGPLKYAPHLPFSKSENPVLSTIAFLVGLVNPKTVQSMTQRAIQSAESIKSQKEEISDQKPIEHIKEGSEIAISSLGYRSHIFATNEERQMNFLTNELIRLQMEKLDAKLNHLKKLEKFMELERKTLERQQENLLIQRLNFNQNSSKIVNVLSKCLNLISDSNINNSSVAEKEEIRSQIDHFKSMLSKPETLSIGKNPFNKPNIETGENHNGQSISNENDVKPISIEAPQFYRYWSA

B1: Snf6 (natural protein)
chain: MGVIKKKRSHHGKASRQQYYSGVQVGGVGSMGAINNNIPSLTSFAEENNYQYGYSGSSAGMNGRSLTYAQQQLNKQRQDFERVRLRPEQLSNIIHDESDTISFRSNLLKNFISSNDAFNMLSLTTVPCDRIEKSRLFSEKTIRYLMQKQHEMKTQAAELQEKPLTPLKYTKLIAAAEDGSRSTKDMIDAVFEQDSHLRYQPDGVVVHRDDPALVGKLRGDLREAPADYWTHAYRDVLAQYHEAKERIRQKEVTAGEAQDEASLQQQQQQDLQQQQQVVTTVASQSPHATATEKEPVPAVVDDPLENMFGDYSNEPFNTNFDDEFGDLDAVFF
B2: Snf12 (natural protein)
chain: MSKVMKPSNGKGSRKSSKAATPDTKNFFHAKKKDPVNQDKANNASQITPTVPHSHPSDMVIPDHLAELIPELYSFQQLVDSEKRLDHFIHLRNLHMKRMVAQWERSKLSQEFLYPHLNFPNVKFLRIFISNVSENQPWQMDTNNEADLMALENATWTMRIEGRLLDNVQANDPAREKFSSFIESIVVDFKNKENDNVPSTKFNAAPEENATEGPSDKKLNLNLPLQFSLPNGDNSTTTNTDQNNATMGEETAKKDMSSTTPKLESVKWQYDPNNPVDFDGLDIKRVGSENVECTISILRKSSPEEPFMSYSPQLTAIIGLKSGTSHDAIFSIYKYIHLNELLTNDESAFENLMGNRNNHNSNTSTSKMLDAASSQVSIVKLDTQLITLLPSSLKESSPDTMKLTDLLSLINSTHLLPLQPIEIDYTVRVDKASTYGELVLDIEVPDVNALKFNNTQRESQIGAAELNENARELEQIKPKIALQDKEITSVLSNLHESNKRYRFFKKISEDPVKALNECIASTSNALKVLSGDEGYNEDMVRRANFYKENEAMLRENIEVILSNGRM
B3: Rtt102 (natural protein)
chain: MDPQTLITKANKVSYYGNPTSKESWRYDWYQPSKVSSNVQQPQQQLGDMENNLEKYPFRYKTWLRNQEDEKNLQRESCEDILDLKEFDRRILKKSLMTSHTKGDTSKATGAPSANQGDEALSVDDIRGAVGNSEAIPGLSAGVNNDNTKESKDVKMN
B4: Snf5 (natural protein)
chain: MNNQPQGTNSVPNSIGNIFSNIGTPSFNMAQIPQQLYQSLTPQQLQMIQQRHQQLLRSRLQQQQQQQQQTSPPPQTHQSPPPPPQQSQPIANQSATSTPPPPPAPHNLHPQIGQVPLAPAPINLPPQIAQLPLATQQQVLNKLRQQAIAKNNPQVVNAITVAQQQVQRQIEQQKGQQTAQTQLEQQRQLLVQQQQQQQLRNQIQRQQQQQFRHHVQIQQQQQKQQQQQQQHQQQQQQQQQQQQQQQQQQQQQQQQQQQQQQQQQQQQQGQIPQSQQVPQVRSMSGQPPTNVQPTIGQLPQLPKLNLPKYQTIQYDPPETKLPYPTYWSDKKADTDTLLYEQIIQRDKINKYSLIRETNGYDPFSIYGFSNKEYISRLWHTLKYYQDLKNTRMKSITSTSQKIPSASIWGNGYSGYGNGITNTTTRVIPQVEVGNRKHYLEDKLKVYKQAMNETSEQLVPIRLEFDQDRDRFFLRDTLLWNKNDKLIKIEDFVDDMLRDYRFEDATREQHIDTICQSIQEQIQEFQGNPYIELNQDRLGGDDLRIRIKLDIVVGQNQLIDQFEWDISNSDNCPEEFAESMCQELELPGEFVTAIAHSIREQVHMYHKSLALLGYNFDGSAIEDDDIRSRMLPTITLDDVYRPAAESKIFTPNLLQISAAELERLDKDKDRDTRRKRRQGRSNRRGMLALSGTSASNTSMNGVHNTVAAGNASSLPPGEILLPDIADIPRTFRTPVPSTLMPGGVDVGPSVESYELRNTTTYKSRPDRPKPVSPPCYIIDHIPGHSLLLSIKLPGKVNTKEEFAAAPNDTSSGTNAMLPSPESLKTKLNSNIRAGVTIPSIPNPIANHTVTNSPNPTLQPVIPGGAASKSVPTPSLPIAPPVAPHDSEATLLTNSNNGSSNNNTQNT
B5: Swp82 (natural protein)
chain: MLGEDEGNTVLEKGNNPSVKQGEVGAVFIVPKILIREHERVILKQILQILDQDELVQPPLDKFPYKKLELPKYIDELKTRDATNTSYKMIQLDAYGEKKVGSNGELFGGRHYLFNTFTFTAHMGVLLVLLQDVIKVLYQSNATHDEDEFIVQHDQILVMETSEEQTKFLAKNGVIPEESKGSFKYITARSAFVEFGASVIAGGQRIVDDYWESLAKKQNLSSHQRVFKLSTNLISKISLLRPSFQNNRISNANEISANTNNTCTISTSKFESQYPIVTEQPSAEIREAYIENFAKGEHISAIVPGQSISGTLELSAQFRVPRYHSKNSFQQALQMKAMDIPIGRHEELLAQYESQAPDGSASISLPNHIPSVNPSNKPIKRMLSSILDINVSSSKNKKSEENEMIKPMNKGQHKNNTSLNINGWKFESLPLKSAENSGKQQYYRGLPLYEKNTLLERLKQLTPNEIKELEHLHDAVFVNTGLQNVRKVRTKKWKKYWQYKAGIPIGLKRSQLDEFKNKYLKDVLAQTSVTTNFNEITNTDETITTKRVPNPNFLGNCNIKDFKPPYIYSHVNKVPQNVAGDKTAVKLDTEVKNTNANPVVATDPVAAKPDNLANFSNEVAMNN

Assay in all cases: cryo-EM structure
One test has as its target T1, Swi1.
A further test has as its target T2, Swi3.
The test “Snf12” has as its target B2.
The target in the next test is Snf2 (S. cerevisiae, UniProt P22082 1-1703).
The test “Snf5” has as its target B4.

Sequence of Snf2 (P22082 whole entry): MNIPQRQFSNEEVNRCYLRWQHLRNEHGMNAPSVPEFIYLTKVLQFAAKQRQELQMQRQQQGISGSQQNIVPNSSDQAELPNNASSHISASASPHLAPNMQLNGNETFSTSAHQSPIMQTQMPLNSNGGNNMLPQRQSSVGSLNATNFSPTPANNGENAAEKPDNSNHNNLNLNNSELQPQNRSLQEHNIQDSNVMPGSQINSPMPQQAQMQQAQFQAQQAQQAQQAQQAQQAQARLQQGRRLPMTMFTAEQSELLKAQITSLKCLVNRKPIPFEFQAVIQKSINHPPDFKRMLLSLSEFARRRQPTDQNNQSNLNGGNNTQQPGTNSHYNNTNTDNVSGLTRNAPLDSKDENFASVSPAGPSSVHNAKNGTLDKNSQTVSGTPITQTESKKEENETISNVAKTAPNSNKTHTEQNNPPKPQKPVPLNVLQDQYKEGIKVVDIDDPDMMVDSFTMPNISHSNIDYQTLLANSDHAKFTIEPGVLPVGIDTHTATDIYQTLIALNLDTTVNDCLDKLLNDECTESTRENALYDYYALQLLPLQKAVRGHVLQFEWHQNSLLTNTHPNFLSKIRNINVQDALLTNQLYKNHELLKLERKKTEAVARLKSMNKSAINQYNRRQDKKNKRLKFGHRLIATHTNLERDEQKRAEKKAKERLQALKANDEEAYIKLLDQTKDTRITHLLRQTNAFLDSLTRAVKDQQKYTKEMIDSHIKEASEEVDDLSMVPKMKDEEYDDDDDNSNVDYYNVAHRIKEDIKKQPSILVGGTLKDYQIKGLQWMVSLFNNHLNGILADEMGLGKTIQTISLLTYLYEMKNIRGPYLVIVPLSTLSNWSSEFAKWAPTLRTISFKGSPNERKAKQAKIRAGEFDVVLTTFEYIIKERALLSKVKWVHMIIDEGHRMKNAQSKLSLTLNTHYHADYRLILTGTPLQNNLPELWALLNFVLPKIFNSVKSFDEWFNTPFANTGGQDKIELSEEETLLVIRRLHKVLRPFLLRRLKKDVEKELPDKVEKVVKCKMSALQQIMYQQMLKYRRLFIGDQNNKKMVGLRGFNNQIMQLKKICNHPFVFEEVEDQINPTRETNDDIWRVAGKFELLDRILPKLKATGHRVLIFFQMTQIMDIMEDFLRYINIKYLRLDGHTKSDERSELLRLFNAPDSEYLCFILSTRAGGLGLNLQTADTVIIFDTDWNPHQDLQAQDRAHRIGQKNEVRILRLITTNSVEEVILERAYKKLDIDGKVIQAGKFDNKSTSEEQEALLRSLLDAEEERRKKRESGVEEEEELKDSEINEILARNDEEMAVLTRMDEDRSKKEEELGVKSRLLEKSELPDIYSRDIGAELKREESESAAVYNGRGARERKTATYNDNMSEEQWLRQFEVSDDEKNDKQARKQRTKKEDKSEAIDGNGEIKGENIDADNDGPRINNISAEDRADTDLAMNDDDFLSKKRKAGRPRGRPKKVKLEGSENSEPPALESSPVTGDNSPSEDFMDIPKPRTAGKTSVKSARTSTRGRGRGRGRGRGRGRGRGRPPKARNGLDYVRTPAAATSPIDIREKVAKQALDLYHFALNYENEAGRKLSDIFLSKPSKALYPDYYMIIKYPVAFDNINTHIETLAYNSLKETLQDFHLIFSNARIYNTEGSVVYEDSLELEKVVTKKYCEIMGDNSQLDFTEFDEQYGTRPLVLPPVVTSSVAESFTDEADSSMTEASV

B1: the binding result in the test with Swi1, with Swi3 and with Snf12 was “binds” throughout. As to B2, the binding result with Swi1 and with Swi3 was “binds” throughout.

With B3, in the test with Snf2, the binding result is “binds”.

On to B4, for which the binding result with Swi1 is “binds”. As to B5, the binding result in the test with Swi3 and with Snf5 was “binds” throughout.
